This note sets out measurements from patent US20230158141A1 (YAFEI SHANGHAI BIOLOG MEDICINE SCIENCE AND TECHNOLOGY, published 2023).

One test deals with T1, IL-10R1-Fc (UniProt Q13651 22-235, limits assumed).
T1 sequence (looked up): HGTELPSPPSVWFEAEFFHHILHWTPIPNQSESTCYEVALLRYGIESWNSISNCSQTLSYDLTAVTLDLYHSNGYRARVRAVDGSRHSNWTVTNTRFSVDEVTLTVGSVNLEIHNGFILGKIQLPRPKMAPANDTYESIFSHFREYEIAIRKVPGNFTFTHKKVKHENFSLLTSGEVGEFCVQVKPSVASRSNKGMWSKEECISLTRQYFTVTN
The experiment in a line: ELISA, IL-10R1-Fc coated.

The next test deals with T2, IL-10R2-Fc/His (UniProt Q08334 20-220, limits assumed).
T2 sequence (looked up): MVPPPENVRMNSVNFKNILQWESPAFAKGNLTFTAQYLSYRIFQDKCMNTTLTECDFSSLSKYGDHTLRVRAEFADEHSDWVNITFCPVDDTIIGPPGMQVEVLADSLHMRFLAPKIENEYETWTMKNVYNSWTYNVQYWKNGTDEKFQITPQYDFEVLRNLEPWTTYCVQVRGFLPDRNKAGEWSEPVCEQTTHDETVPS
Briefly: ELISA, IL-10R2-Fc/His coated.

B1: IL-10 Met22Cys-S48 (ligand, human, UniProt P22301 19-178, looked up)
chain: SPGQGTQSENSCTHFPGNLPNCLRDLRDAFSRVKTFFQMKDQLDNLLLKESLLEDFKGYLGCQALSEMIQFYLEEVMPQAENQDPDIKAHVNSLGENLKTLRLRLRRCHRFLPCENKSKAVEQVKNAFNKLQEKGIYKAMSEFDIFINYIEAYMTMKIRN
modifications: S48 on Cys 22
notes: mature
B1: the “Decreased fold of binding to ligand after Conjugating with S48” value (from here on “Decreased fold of binding to ligand”) was determined as 5 fold with IL-10R1-Fc and 6 fold in the test with IL-10R2-Fc/His.

B2: IL-10 Lys130Cys-R4-7 (ligand, human, UniProt P22301 19-178, looked up)
chain: SPGQGTQSENSCTHFPGNLPNMLRDLRDAFSRVKTFFQMKDQLDNLLLKESLLEDFKGYLGCQALSEMIQFYLEEVMPQAENQDPDIKAHVNSLGENLKTLRLRLRRCHRFLPCENKSKAVEQVKNAFNCLQEKGIYKAMSEFDIFINYIEAYMTMKIRN
modifications: R4-7 on Cys 130
notes: mature
As to B2, the “Binding recovery (>60%)” value with IL-10R1-Fc was 100%; with IL-10R2-Fc/His, 99.7%.

B3: IL-10 His90Cys-R4-19 (ligand, human, UniProt P22301 19-178, looked up)
chain: SPGQGTQSENSCTHFPGNLPNMLRDLRDAFSRVKTFFQMKDQLDNLLLKESLLEDFKGYLGCQALSEMIQFYLEEVMPQAENQDPDIKACVNSLGENLKTLRLRLRRCHRFLPCENKSKAVEQVKNAFNKLQEKGIYKAMSEFDIFINYIEAYMTMKIRN
modifications: R4-19 on Cys 90
notes: mature
As for B3, the entries for the “Binding recovery (>60%)” value in the test with IL-10R1-Fc and with IL-10R2-Fc/His were 86.5% and 79%, respectively.

B4: IL-10 Ser31Cys-S48 (ligand, human, UniProt P22301 19-178, looked up)
chain: SPGQGTQSENSCTHFPGNLPNMLRDLRDAFCRVKTFFQMKDQLDNLLLKESLLEDFKGYLGCQALSEMIQFYLEEVMPQAENQDPDIKAHVNSLGENLKTLRLRLRRCHRFLPCENKSKAVEQVKNAFNKLQEKGIYKAMSEFDIFINYIEAYMTMKIRN
modifications: S48 on Cys 31
notes: mature
As to B4, the “Decreased fold of binding to ligand” value was determined as 39 fold in the test with IL-10R1-Fc and 7 fold with IL-10R2-Fc/His.

B5: IL-10 Arg107Cys-R4-20 (ligand, human, UniProt P22301 19-178, looked up)
chain: SPGQGTQSENSCTHFPGNLPNMLRDLRDAFSRVKTFFQMKDQLDNLLLKESLLEDFKGYLGCQALSEMIQFYLEEVMPQAENQDPDIKAHVNSLGENLKTLRLRLRCCHRFLPCENKSKAVEQVKNAFNKLQEKGIYKAMSEFDIFINYIEAYMTMKIRN
modifications: R4-20 on Cys 107
notes: mature
For B5, the “Binding recovery (>60%)” value worked out at 99.5% in the test with IL-10R1-Fc and 84% with IL-10R2-Fc/His.

B6: IL-10 Lys34Cys-R4-7 (ligand, human, UniProt P22301 19-178, looked up)
chain: SPGQGTQSENSCTHFPGNLPNMLRDLRDAFSRVCTFFQMKDQLDNLLLKESLLEDFKGYLGCQALSEMIQFYLEEVMPQAENQDPDIKAHVNSLGENLKTLRLRLRRCHRFLPCENKSKAVEQVKNAFNKLQEKGIYKAMSEFDIFINYIEAYMTMKIRN
modifications: R4-7 on Cys 34
notes: mature
Consider B6, for which the entries for the “Binding recovery (>60%)” value in the test with IL-10R1-Fc and in the test with IL-10R2-Fc/His were 99.6% and 97.3%, respectively.

B7: IL-10 Met22Cys-R4-1 (ligand, human, UniProt P22301 19-178, looked up)
chain: SPGQGTQSENSCTHFPGNLPNCLRDLRDAFSRVKTFFQMKDQLDNLLLKESLLEDFKGYLGCQALSEMIQFYLEEVMPQAENQDPDIKAHVNSLGENLKTLRLRLRRCHRFLPCENKSKAVEQVKNAFNKLQEKGIYKAMSEFDIFINYIEAYMTMKIRN
modifications: R4-1 on Cys 22
notes: mature
Turning to B7, the “Binding recovery (>60%)” value in the test with IL-10R1-Fc was found to be 96.8%; in the test with IL-10R2-Fc/His it was 80%.

B8: IL-10 Thr35Cys-S48 (ligand, human, UniProt P22301 19-178, looked up)
chain: SPGQGTQSENSCTHFPGNLPNMLRDLRDAFSRVKCFFQMKDQLDNLLLKESLLEDFKGYLGCQALSEMIQFYLEEVMPQAENQDPDIKAHVNSLGENLKTLRLRLRRCHRFLPCENKSKAVEQVKNAFNKLQEKGIYKAMSEFDIFINYIEAYMTMKIRN
modifications: S48 on Cys 35
notes: mature
Take B8: the “Decreased fold of binding to ligand” value with IL-10R1-Fc came to 36 fold; with IL-10R2-Fc/His, 6 fold.

B9: IL-10 Ser31Cys-R4-2 (ligand, human, UniProt P22301 19-178, looked up)
chain: SPGQGTQSENSCTHFPGNLPNMLRDLRDAFCRVKTFFQMKDQLDNLLLKESLLEDFKGYLGCQALSEMIQFYLEEVMPQAENQDPDIKAHVNSLGENLKTLRLRLRRCHRFLPCENKSKAVEQVKNAFNKLQEKGIYKAMSEFDIFINYIEAYMTMKIRN
modifications: R4-2 on Cys 31
notes: mature
In the case of B9, the “Binding recovery (>60%)” value in the test with IL-10R1-Fc turned out to be 125%; with IL-10R2-Fc/His, 87.4%.

B10: IL-10 Asn97Cys-S48 (ligand, human, UniProt P22301 19-178, looked up)
chain: SPGQGTQSENSCTHFPGNLPNMLRDLRDAFSRVKTFFQMKDQLDNLLLKESLLEDFKGYLGCQALSEMIQFYLEEVMPQAENQDPDIKAHVNSLGECLKTLRLRLRRCHRFLPCENKSKAVEQVKNAFNKLQEKGIYKAMSEFDIFINYIEAYMTMKIRN
modifications: S48 on Cys 97
notes: mature
In the case of B10, the results for the “Decreased fold of binding to ligand” value with IL-10R1-Fc and in the test with IL-10R2-Fc/His were 5 fold and 4 fold, respectively.

B11: IL-10 Thr100Cys-S48 (ligand, human, UniProt P22301 19-178, looked up)
chain: SPGQGTQSENSCTHFPGNLPNMLRDLRDAFSRVKTFFQMKDQLDNLLLKESLLEDFKGYLGCQALSEMIQFYLEEVMPQAENQDPDIKAHVNSLGENLKCLRLRLRRCHRFLPCENKSKAVEQVKNAFNKLQEKGIYKAMSEFDIFINYIEAYMTMKIRN
modifications: S48 on Cys 100
notes: mature
As to B11, the “Decreased fold of binding to ligand” value with IL-10R1-Fc stood at 4 fold; in the test with IL-10R2-Fc/His, 8 fold.

B12: IL-10 Arg32Cys-S48 (ligand, human, UniProt P22301 19-178, looked up)
chain: SPGQGTQSENSCTHFPGNLPNMLRDLRDAFSCVKTFFQMKDQLDNLLLKESLLEDFKGYLGCQALSEMIQFYLEEVMPQAENQDPDIKAHVNSLGENLKTLRLRLRRCHRFLPCENKSKAVEQVKNAFNKLQEKGIYKAMSEFDIFINYIEAYMTMKIRN
modifications: S48 on Cys 32
notes: mature
As to B12, the “Decreased fold of binding to ligand” value with IL-10R1-Fc was found to be 13 fold; with IL-10R2-Fc/His, 9 fold.

B13: IL-10 Lys119Cys-R4-7 (ligand, human, UniProt P22301 19-178, looked up)
chain: SPGQGTQSENSCTHFPGNLPNMLRDLRDAFSRVKTFFQMKDQLDNLLLKESLLEDFKGYLGCQALSEMIQFYLEEVMPQAENQDPDIKAHVNSLGENLKTLRLRLRRCHRFLPCENKSCAVEQVKNAFNKLQEKGIYKAMSEFDIFINYIEAYMTMKIRN
modifications: R4-7 on Cys 119
notes: mature
On to B13, for which the “Binding recovery (>60%)” value was 99% in the test with IL-10R1-Fc and 106% with IL-10R2-Fc/His.

B14: IL-10 Arg104Cys-R4-20 (ligand, human, UniProt P22301 19-178, looked up)
chain: SPGQGTQSENSCTHFPGNLPNMLRDLRDAFSRVKTFFQMKDQLDNLLLKESLLEDFKGYLGCQALSEMIQFYLEEVMPQAENQDPDIKAHVNSLGENLKTLRLCLRRCHRFLPCENKSKAVEQVKNAFNKLQEKGIYKAMSEFDIFINYIEAYMTMKIRN
modifications: R4-20 on Cys 104
notes: mature
Consider B14, for which the “Binding recovery (>60%)” value with IL-10R1-Fc came out at 98.5%; in the test with IL-10R2-Fc/His, 96.6%.

B15: IL-10 Lys34Cys-S48 (ligand, human, UniProt P22301 19-178, looked up)
chain: SPGQGTQSENSCTHFPGNLPNMLRDLRDAFSRVCTFFQMKDQLDNLLLKESLLEDFKGYLGCQALSEMIQFYLEEVMPQAENQDPDIKAHVNSLGENLKTLRLRLRRCHRFLPCENKSKAVEQVKNAFNKLQEKGIYKAMSEFDIFINYIEAYMTMKIRN
modifications: S48 on Cys 34
notes: mature; also called IL10-K34C-S48
As to B15, the “Decreased fold of binding to ligand” value with IL-10R1-Fc came to 50 fold; in the test with IL-10R2-Fc/His it was 5 fold.

B16: IL-10 Asp25Cys-S48 (ligand, human, UniProt P22301 19-178, looked up)
chain: SPGQGTQSENSCTHFPGNLPNMLRCLRDAFSRVKTFFQMKDQLDNLLLKESLLEDFKGYLGCQALSEMIQFYLEEVMPQAENQDPDIKAHVNSLGENLKTLRLRLRRCHRFLPCENKSKAVEQVKNAFNKLQEKGIYKAMSEFDIFINYIEAYMTMKIRN
modifications: S48 on Cys 25
notes: mature
As to B16, the “Decreased fold of binding to ligand” value with IL-10R1-Fc is 3 fold; with IL-10R2-Fc/His it was 5 fold.

B17: IL-10 Asn18Cys-R4-18 (ligand, human, UniProt P22301 19-178, looked up)
chain: SPGQGTQSENSCTHFPGCLPNMLRDLRDAFSRVKTFFQMKDQLDNLLLKESLLEDFKGYLGCQALSEMIQFYLEEVMPQAENQDPDIKAHVNSLGENLKTLRLRLRRCHRFLPCENKSKAVEQVKNAFNKLQEKGIYKAMSEFDIFINYIEAYMTMKIRN
modifications: R4-18 on Cys 18
notes: mature
Consider B17, for which the “Binding recovery (>60%)” value amounted to 92.3% in the test with IL-10R1-Fc and 99.8% in the test with IL-10R2-Fc/His.
